One may read the Kd as a measure of binding affinity in units of concentration. Usually kon stands for a measure of how fast the partners come together. Usually IC50 stands for the concentration at which inhibition is half-maximal.

This is an account of results in patent US20170015742A1 (published 2017).

One assay deals with T1, Human VEGF-A 165 (human, UniProt P15692 207-395).
T1 construct: Recombinant human VEGF165; also called huVEGF-A165; hVEGF165
The experiment in a line: SPR (Biacore), antibody captured by anti-human Fc, hVEGF165 as analyte. The method, then:
(§1) For example, approximately 9000 RU of goat anti-human Fc specific polyclonal antibody (Thermo Fisher Scientific Inc., Rockford, Ill.) diluted in 10 mM sodium acetate (pH 4.5) is directly immobilized across a CM5 research grade biosensor chip using a standard amine coupling kit according to manufacturer's instructions and procedures at 25 μg/ml. Unreacted moieties on the biosensor surface were blocked with ethanolamine. For kinetic analysis, rate equations derived from the 1:1 Langmuir binding model were fitted simultaneously to multiple antigen injections (using global fit analysis) with the use of Scrubber 2 (BioLogic Software), Biacore Biaevaluation 4.0.1 software or Biacore T100 Evaluation software. Purified antibodies or DVD-Ig molecules were diluted in running buffer for capture across goat anti-human Fc reaction surfaces. Antibodies or DVD-Ig molecules to be captured as a ligand (1 μg/ml) were injected over reaction matrices at a flow rate of 10 μl/minute. During the assay, all measurements were referenced against the capture surface alone (i.e., with no captured antibody or DVD-Ig molecule). […] The equilibrium dissociation constant KD (M) of the reaction between antibodies and the target antigen was then calculated from the kinetic rate constants by the following formula: KD=Koff/Kₒₙ. Binding was recorded as a function of time and kinetic rate constants were calculated.
A general note: In SPR one partner is held on a chip, and binding of the other changes the refractive index at the surface.

Assay [1] deals with T2, Human PDGF-BB (human, UniProt P01127 82-190).
T2 construct: Dimer of two B chains; also called hPDGF-BB; huPDGF-BB
The experiment in a line: competition ELISA: antibody pre-incubated with hPDGF-BB-biotin, binding to coated hPDGF-Rβ-Fc. On the procedure: Plates were then washed four times with wash buffer (TBS, 0.05% Tween-20) and blocked with Superblock blocking buffer (Thermo Scientific, cat#37535). During the blocking step, supernatants, antibodies, benchmark compounds or DVD-Ig were diluted in assay diluent (10% Superblock containing 0.05% surfactamps) and an eight point titration of each sample molecule was performed. […] Following incubation, plates were washed four times with wash buffer. Detection reagent Streptavidin-polyHRP-40 (Fitzgerald, cat#65r-s104phrp) was diluted in assay diluent and added to plates (50 μL) for 45 minutes at 25° C. with shaking. Plates were washed four times with wash buffer and developed with the addition of Enhanced K-blue TMB substrate (Neogen, cat#308177). The reaction was stopped with 2N sulfuric acid (VWR, cat# BDH3500-1) and the absorbance was read at 450 nm-570 nm. […] Data was analyzed using Softmax Pro 4.8 software and IC₅₀ values calculated using a sigmoidal dose response (variable slope) fit in GraphPad Prism 5.
Potency was evaluated in both cell-based and ELISA formats.

Assay [2] addresses T2, Human PDGF-BB. Nature of the assay: cell-based or functional assay.
Target sequence in this assay (P01127 82-190 limits assumed): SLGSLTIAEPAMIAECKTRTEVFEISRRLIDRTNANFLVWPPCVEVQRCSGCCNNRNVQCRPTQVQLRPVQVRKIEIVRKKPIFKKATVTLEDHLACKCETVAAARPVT
Assay [3] concerns the target T3, Cynomolgus monkey PDGF-BB (cynomolgus monkey, UniProt P01127 82-190 (human entry), limits assumed).
T3 chain: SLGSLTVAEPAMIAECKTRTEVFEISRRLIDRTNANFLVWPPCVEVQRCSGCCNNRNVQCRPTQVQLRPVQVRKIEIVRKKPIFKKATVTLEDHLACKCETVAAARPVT
The experiment in a line: cell-based or functional assay.

Assay [4] deals with T2, Human PDGF-BB. The experiment in a line: Biacore SPR, antibody captured by anti-human Fc, PDGF-BB as analyte. The method, then: as §1, with “Unreacted” for “For example, approximately 9000 RU of goat anti-human Fc specific polyclonal antibody (Thermo Fisher Scientific Inc., Rockford, Ill.) diluted in 10 mM sodium acetate (pH 4.5) is directly immobilized across a CM5 research grade biosensor chip using a standard amine coupling kit according to manufacturer's instructions and procedures at 25 μg/ml. Unreacted”, “calculated. In this assay, on-rates as fast as 10⁶M⁻¹s⁻¹ and off-rates as slow as 10⁻⁶ s⁻¹ could be measured. […]” for “calculated.”

T1 sequence (P15692 other isoform, or with tags, fused parts or gaps): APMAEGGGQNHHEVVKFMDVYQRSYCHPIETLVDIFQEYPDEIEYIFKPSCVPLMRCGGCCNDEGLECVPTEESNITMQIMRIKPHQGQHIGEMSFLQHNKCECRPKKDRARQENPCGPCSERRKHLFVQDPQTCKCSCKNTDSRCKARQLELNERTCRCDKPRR

B1: chBEW-5C3 (antibody, human IgG1, kappa, L234A L235A, V domains shown)
VH: QIQLVQSGPELKKPGESVKISCKASGYTFTNYGVYWVKQAPGQGLQYMGWINTETGKPTYADDFKGRFVFFLETSTNTAYLQINNLKNEDMATFFCARARQLDWFVYWGQGTLVTVSS
VL: DTVLTQSPALTVSPGERVSISCRARESLTTSLCWFQQKPGQQPKLLIYGASKLESGVPARFSGSGSGTDFTLTIDPVEADDTATYFCQQSWYDPPTFGGGTKLELKR
notes: also called chBEW-5C3-E7
In the assay with Human VEGF-A 165, B1 showed a Kd of 0.012 nM and a kon of 6.8e+06 M⁻¹ s⁻¹.

B2: chBEW-10H2 (antibody, human IgG1, kappa, L234A L235A, V domains shown)
VH: QIQLVQSGPELKKPGESVKISCKASGYSFTNFGLYWVKQAPGQGLQYMGWIDTETGKPTYADDFRGRFVFFLETSASTAYLQINNLKNEDMATYFCARVYGYPSWYFDFWGPGTMVTVSS
VL: DIQMTQSPASLSTSLEEIVTITCQASQDIDNYLSWYQQKPGKSPQLLIHSATSLADGVPSRFSGSRSGTQFSLKIHRLQVEDTGIYYCLQHFFPPWTFGGGTKLELKR
notes: also called chBEW-10H2-B9
In the assay with Human VEGF-A 165, B2 registered a dissociation constant Kd of 0.013 nM and a kon of 2.8e+07 M⁻¹ s⁻¹.

B3: chBEW-3A1 (antibody, human IgG1, kappa, L234A L235A, V domains shown)
VH: QVQLEQSGAELVKPGTSVKLSCMASGYTSSSNHMNWMKQTTGQGLEWIGIINPGSGGTRYNVKFEGKATLTVDKSSSTAFMQLNSLTPEDSAVYYCARAGFPGPFSYYAMGAWGQGTSVTVSS
VL: DIQMTQSPPVLSASVGDRVTLSCKASQNIHNNLDWYQQKHGEAPKLLIFYTNNLQTGIPSRFSGSGSGTDYTLTISSLQPEDVATYYCYQYNSGYTFGAGTKLELKR
notes: also called chBEW-3A1-D10-G9
B3: in the assay with Human VEGF-A 165, binding was put at a Kd of 0.023 nM and the kon is 3.5e+07 M⁻¹ s⁻¹.

B4: chBEW-1E3 (antibody, human IgG1, kappa, L234A L235A, V domains shown)
VH: QIQLVQSGPELKKPGESVKISCKASGYPFTNSGMYWVKQAPGQGLQYMGWINTEAGKPTYADDFKGRFVFFLETSASTAYLQINNLKNEDMATYFCARWGYISDNSYGWFDYWGQGTLVTVSS
VL: DTVLTQSPALAVSPGERVSISCRASEGVYSYMHWYQQNPGQQPKLLIYKASNLASGVPARFSGSGSGTDFTLTIDPVEADDTATYFCHQNWNDPLTFGSGTKLEIKR
notes: also called chBEW-1E3-D6
In the assay with Human VEGF-A 165, B4 gave a Kd of 0.011 nM and a kon of 7.2e+06 M⁻¹ s⁻¹.

B5: CL-33578-IgG (antibody, V domains shown)
VH: EVTLRESGPALVKPTQTLTLTCTFSGFSLSTYGMGVGWIRQPPGKALEWLANIWWDDDKYYNPSLKNRLTISKDTSKNQVVLTMTNMDPVDTATYYCARIQSGWTNYEFDYWGQGTMVTVSS
VL: EIVLTQSPGTLSLSPGERATLSCERSSGDIGDSYVSWYQQKPGQAPRLVIYADDQRPSGIPDRFSGSGSGTDFTLTISRLEPEDFAVYYCQSYDINIDIVFGGGTKVEIK
In the case of B5, the IC50 with Human PDGF-BB [1] stood at 0.049 nM. In addition, the “hPDGF-BB NIH-3T3 Proliferation IC50” value in the assay with Human PDGF-BB [2] came out at 0.033 nM. For the same molecule, the “cynoPDGF-BB NIH-3T3 Proliferation IC50” value in assay [3] is 0.023 nM. Besides, in the assay with Human PDGF-BB [4], the Kd is at most 0.0003 nM and the kon is at least 9e+07 M⁻¹ s⁻¹.

B6: CL-33587-IgG (antibody, V domains shown)
VH: EVTLRESGPALVKPTQTLTLTCTFSGFSLSTYGMGVGWIRQPPGKALEWLANIWWDDDKYYNPSLKNRLTISKDTSKNQVVLTMTNMDPVDTATYYCARIQSMWTRYDFDYWGQGTMVTVSS
VL: EIVLTQSPGTLSLSPGERATLSCERSSGDIGDSYVSWYQQKPGQAPRLVIYADDQRPSGIPDRFSGSGSGTDFTLTISRLEPEDFAVYYCQSYDINIDIVFGGGTKVEIK
In the case of B6, in the assay with Human PDGF-BB [1], the IC50 was below 0.1 nM. In addition, the “hPDGF-BB NIH-3T3 Proliferation IC50” value with Human PDGF-BB [2] was determined as 0.046 nM. The “cynoPDGF-BB NIH-3T3 Proliferation IC50” value in assay [3] came to 0.029 nM. Also, in the assay with Human PDGF-BB [4], the Kd is at most 0.00022 nM and the kon is at least 9e+07 M⁻¹ s⁻¹.

B7: CL-33759-IgG (antibody, V domains shown)
VH: EVTLRESGPALVKPTQTLTLTCTFSGFSLSTYGMGVGWIRQPPGKALEWLANIWWDDDKYYNPSLKNRLTISKDTSKNQVVLTMTNMDPVDTATYYCARIESVWTRYDFDYWGQGTMVTVSS
VL: EIVLTQSPGTLSLSPGERATLSCERSSGDIWQTYVSWYQQKPGQAPRLVIYGDDQRASGIPDRFSGSGSGTDFTLTISRLEPEDFAVYYCQSYDIDIDITFGGGTKVEIK
In the assay with Human PDGF-BB [1], B7 gave an IC50 of 1.27 nM. Further, the “hPDGF-BB NIH-3T3 Proliferation IC50” value with Human PDGF-BB [2] was 0.293 nM. In addition, the “cynoPDGF-BB NIH-3T3 Proliferation IC50” value in assay [3] was determined as 0.18 nM.

B8: CL-33845-IgG (antibody, V domains shown)
VH: EVTLRESGPALVKPTQTLTLTCTFSGFSLSTYGMGVGWIRQPPGKALEWLANIWWDDDKYYNPSLKNRLTISKDTSKNQVVLTMTNMDPVDTATYYCARIVSDWTTYSFDYWGQGTMVTVSS
VL: EIVLTQSPGTLSLSPGERATLSCRASSGSIWYSFVSWYQQKPGQAPRLLIYADDQRASGIPDRFSGSGSGTDFTLTISRLEPEDFAVYYCQSYGINIDVVFGGGTKVEIK
For the molecule B8, the IC50 with Human PDGF-BB [1] came out at 0.409 nM. In addition, the “hPDGF-BB NIH-3T3 Proliferation IC50” value with Human PDGF-BB [2] was determined as 0.171 nM. Also, in assay [3], the “cynoPDGF-BB NIH-3T3 Proliferation IC50” value amounted to 0.073 nM.

B9: CL-33737-IgG (antibody, V domains shown)
VH: EVTLRESGPALVKPTQTLTLTCTFSGFSLSTYGMGVGWIRKPPGKALEWLANIWWDDDKYYNPSLKNRLTISKDTSKNQVVLTMTNMDPVDTATYYCARIESSGPKYSFDYWGQGTMVTVSS
VL: EIVLTQSPGTLSLSPGERATLSCRASSGSIWYSFVSWYQQKPGQAPRLLIYADDQRASGIPDRFSGSGSGTDFTLTISRLEPEDFAVYYCQSYGINIDVVFGGGTKVEIK
Regarding B9, the IC50 with Human PDGF-BB [1] came out at 0.092 nM. For the same molecule, the “hPDGF-BB NIH-3T3 Proliferation IC50” value in the assay with Human PDGF-BB [2] amounted to 0.03 nM. Moreover, in assay [3], the “cynoPDGF-BB NIH-3T3 Proliferation IC50” value is 0.024 nM.

B10: CL-33767-IgG (antibody, V domains shown)
VH: EVTLRESGPALVKPTQTLTLTCTFSGFSLSTYGMGVGWIRQPPGKALEWLANIWWDDDKYYNPSLKNRLTISKDTSKNQVVLTMTNMDPVDTATYYCARIESIGPKYSFDYWGQGTMVTVSS
VL: EIVLTQSPGTLSLSPGERATLSCRASSGSIWYSFVSWYQQKPGQAPRLLIYADDQRASGIPDRFSGSGSGTDFTLTISRLEPEDFAVYYCQSYGINIDVVFGGGTKVEIK
B10 displayed an IC50 in the assay with Human PDGF-BB [1] of 0.114 nM. Besides, in the assay with Human PDGF-BB [2], the “hPDGF-BB NIH-3T3 Proliferation IC50” value is 0.09 nM. Also, the “cynoPDGF-BB NIH-3T3 Proliferation IC50” value in assay [3] was 0.042 nM.

B11: CL-33699-IgG (antibody, V domains shown)
VH: EVTLRESGPALVKPTQTLTLTCTFSGFSLSTYGMGIGWIRQPPGKALEWLANIWWDDDKYYNPSLKNRLTISKDTSKNQVVLTMTNMDPVDTATYYCARIESMGPKYAFDYWGQGTMVTVSS
VL: EIVLTQSPGTLSLSPGERATLSCRASSGSIWYSFVSWYQQKPGQAPRLLIYADDQRASGIPDRFSGSGSGTDFTLTISRLEPEDFAVYYCQSYGINIDVVFGGGTKVEIK
In the assay with Human PDGF-BB [1], B11 came in with an IC50 of 0.072 nM. Moreover, the “hPDGF-BB NIH-3T3 Proliferation IC50” value with Human PDGF-BB [2] is 0.033 nM. Besides, the “cynoPDGF-BB NIH-3T3 Proliferation IC50” value in assay [3] was found to be 0.016 nM.

B12: chBEW-8E6 (antibody, human IgG1, kappa, L234A L235A, V domains shown)
VH: QIQLVQSGPELKKPGESVKISCKASGYTFTDYAMHWVKQAPGKVLKWMGWINTFTGKPTYIDDFKGRFVFSLEASASTANLQISDLKNEDTATYFCARGNYYSGYWYFDFWGPGTMVTMSS
VL: DIQMTQSPASLSASLGETISIECRASEDISSNLAWYQQKSGKSPQLLIFAANRLQDGVPSRFSGSGSGTQFSLKISGMQPEDEGDYFCLQGSKFYTFGAGTKLELKR
notes: also called chBEW-8E6-E4
Consider B12, for which, in the assay with Human VEGF-A 165, the Kd was determined as 0.016 nM and the kon amounted to 6.2e+06 M⁻¹ s⁻¹.
